Laboratory results taken from the supplement of paper PMC7125110.
± gives the standard error. This sample holds only a part of the variants without activity.

B1: glmS ribozyme (parent)
chain: AUAAAAGCGCCAGAACUACAGAAAUGUAGUUGACGAGGAGGAGGUUUAUCGAAUUUUCGGCGGAUGCCUCCAAA

What was measured:
Conditions in all cases: with glucosamine-6-phosphate
glucosamine-6-phosphate [1] = variants of: B1; assay: self-cleavage kobs at 40 uM GlcN6P; higher = faster cleavage; RNA array
Summary of the method: (§1)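 Weighted Michaelis–Menten fits across concentrations supplied kcat and KM, based on kobs from one- or two-exponential decay fits to normalised per-tile medians. The data came from barcoded ribozyme variants transcribed in situ by E. coli RNA polymerase on sequenced MiSeq chips and tracked at 37 °C by a hybridised Cy3 probe. Glucosamine-6-phosphate (40 μM to 10 mM) in HEPES/KCl/Mg(OAc)2 buffer was flowed in.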

glucosamine-6-phosphate [2] = variants of: B1; assay: self-cleavage kobs at 640 uM GlcN6P; higher = faster cleavage; RNA array
Summary of the method: as §1

glucosamine-6-phosphate [3] = variants of: B1; assay: self-cleavage kobs at 2500 uM GlcN6P; higher = faster cleavage; RNA array
Summary of the method: as §1

glucosamine-6-phosphate [4] = variants of: B1; assay: self-cleavage kobs at 10000 uM GlcN6P; higher = faster cleavage; RNA array
Summary of the method: as §1

glucosamine-6-phosphate [5] = variants of: B1; assay: self-cleavage kobs at 160 uM GlcN6P; higher = faster cleavage; RNA array
Summary of the method: as §1

Variant | self-cleavage kobs at 40 uM GlcN6P (glucosamine-6-phosphate [1]) [s⁻¹] | self-cleavage kobs at 640 uM GlcN6P (glucosamine-6-phosphate [2]) [s⁻¹] | self-cleavage kobs at 2500 uM GlcN6P (glucosamine-6-phosphate [3]) [s⁻¹] | self-cleavage kobs at 10000 uM GlcN6P (glucosamine-6-phosphate [4]) [s⁻¹] | self-cleavage kobs at 160 uM GlcN6P (glucosamine-6-phosphate [5]) [s⁻¹]
G7A A12G | < 1e-05 | < 1e-05 | < 1e-05 | < 1e-05 | –
C8G G59C | < 1e-05 | < 1e-05 | – | < 1e-05 | –
A15U G29U G60C | < 1e-05 | – | – | – | –
G40C C50G | < 1e-05 | – | < 1e-05 | < 1e-05 | < 1e-05
G38U U57G C67U C70U | 8e-05 ± 2.6e-05 | 0.000114 ± 4.7e-05 | 0.0013 ± 0.00059 | 4.29e-05 ± 1.9e-05 | –
G13U G35A U45A A64G | < 1e-05 | < 1e-05 | < 1e-05 | < 1e-05 | –
C34G A64C U65A | < 1e-05 | – | – | – | –
G35A U54G C68G | 0.000144 ± 5.9e-05 | – | – | – | –
G62U G63A | < 1e-05 | < 1e-05 | < 1e-05 | < 1e-05 | < 1e-05
C10U G35U A39U A48G | < 1e-05 | < 1e-05 | < 1e-05 | < 1e-05 | < 1e-05
C16G C34U G59A G60U | < 1e-05 | – | – | – | –
A15C G37C G40A G43U | < 1e-05 | – | – | < 1e-05 | –
A36C G41C U69A | < 1e-05 | – | – | – | –
A15C C34A G37U G41A | < 1e-05 | – | – | < 1e-05 | –
A36G U45C U56A | < 1e-05 | – | – | – | –
A12U A52G C67U | 7.05e-05 ± 1.6e-05 | – | – | 0.00179 ± 0.00037 | –
G41A U46G G51U | < 1e-05 | – | – | – | –
C50G G66U C67A | 0.000105 ± 1.9e-05 | – | 4.67e-05 ± 1.7e-05 | 0.000166 ± 2.7e-05 | –
G29A G38U A39G C58A G66A | < 1e-05 | – | – | – | –
G35C U56C | < 1e-05 | < 1e-05 | < 1e-05 | < 1e-05 | < 1e-05
G9U A14C A52C | < 1e-05 | – | < 1e-05 | < 1e-05 | –
G51U G63C | < 1e-05 | < 1e-05 | < 1e-05 | < 1e-05 | –
C50A A64G C71U | < 1e-05 | – | – | – | –
G37C G43A C61A | < 1e-05 | – | – | < 1e-05 | –

Variant | self-cleavage kobs at 40 uM GlcN6P (glucosamine-6-phosphate [1]) [s⁻¹] | self-cleavage kobs at 640 uM GlcN6P (glucosamine-6-phosphate [2]) [s⁻¹] | self-cleavage kobs at 2500 uM GlcN6P (glucosamine-6-phosphate [3]) [s⁻¹] | self-cleavage kobs at 10000 uM GlcN6P (glucosamine-6-phosphate [4]) [s⁻¹] | self-cleavage kobs at 160 uM GlcN6P (glucosamine-6-phosphate [5]) [s⁻¹]
C34G G37U G38C U47G U56C | < 1e-05 | – | – | < 1e-05 | –
A15G G35C | < 1e-05 | < 1e-05 | < 1e-05 | – | –
A33G U45A C50G U54G G60A C67A | 0.000354 ± 9.5e-05 | – | – | 0.000164 ± 5.5e-05 | –
G7C C34G | < 1e-05 | < 1e-05 | < 1e-05 | < 1e-05 | < 1e-05
G38U C70U C71G | 8.76e-05 ± 2.7e-05 | – | – | – | –
C34A A64U | < 1e-05 | < 1e-05 | – | < 1e-05 | < 1e-05
C10G G32U A53G C58G G60C | < 1e-05 | – | – | 0.000266 ± 4.4e-05 | –
U30C U47C C58A U65A | < 1e-05 | – | – | – | –
G59A A64U | < 1e-05 | – | < 1e-05 | < 1e-05 | –
G35U U45A U57C C67A C68A | < 1e-05 | – | – | < 1e-05 | –
A6U U49C | < 1e-05 | – | < 1e-05 | < 1e-05 | < 1e-05
G7U G35U A39U | < 1e-05 | – | – | – | –
C16U C34U G37U | < 1e-05 | – | – | – | –
C8A A15G | < 1e-05 | < 1e-05 | < 1e-05 | < 1e-05 | < 1e-05
A48C G59U C67A | < 1e-05 | – | – | – | –
C8A U31A | < 1e-05 | – | – | – | –
U31C C34U U65C | < 1e-05 | – | < 1e-05 | < 1e-05 | –
A15C G35A | < 1e-05 | < 1e-05 | < 1e-05 | < 1e-05 | < 1e-05
U47A U55G | 0.000473 ± 8.1e-05 | 0.00869 ± 0.0018 | 0.0105 ± 0.0022 | 0.0152 ± 0.0031 | 0.000805 ± 0.00018
A6C C67G | < 1e-05 | – | – | – | –
A42U C61U | < 1e-05 | < 1e-05 | < 1e-05 | < 1e-05 | < 1e-05
G43U C71G | < 1e-05 | < 1e-05 | – | < 1e-05 | < 1e-05
U30C G38U G43C U46G | < 1e-05 | < 1e-05 | – | < 1e-05 | –
G29A A42C | < 1e-05 | < 1e-05 | – | < 1e-05 | < 1e-05
